# Results reported in patent publication US20150266968A1 (COMPLIX, published 2015).
# Tests used:
# [1] = target: T1, GST-tagged recombinant human MCL-1 (residues 172 to 327) (human, UniProt Q07820 172-327); experiment: ELISA: Alphabody (500 nM) captured by immobilized anti-V5 antibody, five-fold dilutions of GST-MCL-1, detection with anti-GST-HRP, OD read at 492 nm and 630 nm
# T1 construct: Produced in E. coli as an N-terminal GST fusion and purified using the GST-tag; also called recombinant MCL-1; GST-MCL-1; not shown: N-terminal GST tag and any linker or cleavage site between GST and MCL-1
# [2] = target: T2, GST-tagged recombinant human BCL-XL with a C terminal deletion of 24 amino acids (human, UniProt Q07817 1-209); experiment: ELISA: Alphabody (500 nM) captured by immobilized anti-V5 antibody, five-fold dilutions of GST-BCL-XL, detection with anti-GST-HRP, OD read at 492 nm and 630 nm
# T2 construct: domain: BCL-XL with a C terminal deletion of 24 amino acids; Produced in E. coli as an N-terminal GST fusion; also called GST-BCL-XL; not shown: Glutathione S Transferase (GST) tag at the N-terminus
# Procedure: (§1) FIG. 13: Binding of recombinant BCL-2 family proteins to Alphabody AB1_pan_hiKR3-V5. Alphabody (500 nM) was captured by immobilized anti-V5 antibody (5 microg/ml) to a microtiterplate. Binding of five-fold dilutions of Glutathione S transferase (GST)-tagged recombinant BCL-2 family proteins MCL-1, BCL-XL and BCL-2a was detected using a anti-GST antibody conjugated to Horse Radish Peroxidase. Plates were read at 492 nm and 630 nm.
# (§2) Maxisorp Nunc plates were coated with 100 microl anti-V5 antibody (5 microg/ml) in carbonate buffer pH 9.6 overnight at 4° C. The next day, plates were washed 3 times with Tris Buffered Saline containing 0.05% Tween 20 (TBST) and blocked with TBS containing 0.1% BSA and 0.5% gelatin for 2 h at 37° C. After washing plates 5 times with TBST, 500 nM AB1_pan_hiKR3-V5 Alphabody was added to the plates for 2 h at RT while shaking. Plates were washed 10 times with TBST and five-fold dilutions of Glutathione S transferase (GST) tagged recombinant BCL-2 family proteins (MCL-1, BCL-XL and BCL-2a) were added and further incubated for 2 h at RT while shaking. Binding of GST-tagged recombinant BCL-2 family proteins was detected using an anti-GST antibody conjugated to Horse Radish Peroxidase. […] Signals indicative for specific binding of AB1_pan_hiKR3-V5 to the particular BCL-2 family recombinant protein were read at 492 nm and 630 nm.
# [3] = target: T1, GST-tagged recombinant human MCL-1 …; experiment: ELISA: Alphabody (500 nM) captured by immobilized anti-V5 antibody, five-fold dilutions of GST-tagged recombinant protein, detection with anti-GST-HRP, OD read at 492 nm and 630 nm
# Procedure: as §1, §2
# [4] = target: T2, GST-tagged recombinant human BCL-XL …; experiment: as above
# Procedure: as §1, §2
# T1 sequence (Q07820 172-327 limits assumed): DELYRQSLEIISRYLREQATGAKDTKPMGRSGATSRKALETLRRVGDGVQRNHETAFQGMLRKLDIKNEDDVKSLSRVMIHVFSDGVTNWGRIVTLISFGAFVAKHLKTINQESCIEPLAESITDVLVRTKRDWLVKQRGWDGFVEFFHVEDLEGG
# T2 sequence (Q07817 1-209, stated change not applied): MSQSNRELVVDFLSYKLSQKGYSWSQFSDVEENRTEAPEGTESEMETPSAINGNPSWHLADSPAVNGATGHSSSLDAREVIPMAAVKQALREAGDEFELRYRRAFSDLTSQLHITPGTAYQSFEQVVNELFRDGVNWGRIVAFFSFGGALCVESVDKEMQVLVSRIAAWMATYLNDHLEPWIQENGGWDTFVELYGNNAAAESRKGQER
binding result [1],EC50 (read off the curve) [1] [nM],EC50 (read off the curve) [2] [nM],EC50 (read off the curve) [3] [nM],EC50 (read off the curve) [4] [nM],Binder
no binding (tested: 200 nM),–,–,–,–,"Alphabody MB23_hiR-V5 (designed binder, Cationized Alphabody directed against IL-23, with His-tag and V5 tag; Used as control in the BCL-2 family ELISA; also called cationized MB23; control Alphabody MB23-hiR-V5) MSIEQIQKEITTIQEVIAAIQKYIYTMTGGSGGSGGMSIQQIQAAIRRIQRAIRRIQRAIRRMTGSGGGGSGMSIEEIQKQIAAIQEQIVAIYKQIMAMASHHHHHHGKPIPNPLLGLDST"
–,~2,~5,~2,~5,"Alphabody AB1_pan_hiKR3-V5 (designed binder, captured on the plate by anti-V5 antibody in the ELISA) MSIEEIQKQFKRIQKQIKRIAKQIKRMTGGSGGSGGMSIEEIAAQIAAIQLRIIGDQFNIYYMTGSGGGGSGGSIEEIKKSIRAIQKEIKKIQKKIKKMTPHHHHHHHHHHGKPIPNPLLGLDST"
–,~1,–,–,–,Alphabody AB1_A2aF_hiKR3-V5 (designed binder) MSIQQIQKQFKRIQKQIKRIEKQIKRMTGGSGGSGGMSIEEITKQIAAIQLRIVGDQVQIYAMTGGSGGGSGGGSGGGSGGSIEEIKKSIRAIQKEIKKIQKKIKKMTPHHHHHHHHHHGKPIPNPLLGLDST
